Experimental findings from article PMC7677223 (Nature microbiology, 2020) are described below.

Data set [1] addresses VZV capsid (MCP pORF40, SCP pORF23, Tri1 pORF20, Tri2 pORF41) (varicella-zoster virus (P-Oka strain)) (UniProt P09245). In words: cryo-EM structure.
Data set [2] concerns the molecule itself. In words: cryo-EM structure.

Chain of VZV capsid (MCP pORF40, SCP pORF23, Tri1 pORF20, Tri2 pORF41) (varicella-zoster virus (P-Oka strain)) (P09245 whole entry, looked up): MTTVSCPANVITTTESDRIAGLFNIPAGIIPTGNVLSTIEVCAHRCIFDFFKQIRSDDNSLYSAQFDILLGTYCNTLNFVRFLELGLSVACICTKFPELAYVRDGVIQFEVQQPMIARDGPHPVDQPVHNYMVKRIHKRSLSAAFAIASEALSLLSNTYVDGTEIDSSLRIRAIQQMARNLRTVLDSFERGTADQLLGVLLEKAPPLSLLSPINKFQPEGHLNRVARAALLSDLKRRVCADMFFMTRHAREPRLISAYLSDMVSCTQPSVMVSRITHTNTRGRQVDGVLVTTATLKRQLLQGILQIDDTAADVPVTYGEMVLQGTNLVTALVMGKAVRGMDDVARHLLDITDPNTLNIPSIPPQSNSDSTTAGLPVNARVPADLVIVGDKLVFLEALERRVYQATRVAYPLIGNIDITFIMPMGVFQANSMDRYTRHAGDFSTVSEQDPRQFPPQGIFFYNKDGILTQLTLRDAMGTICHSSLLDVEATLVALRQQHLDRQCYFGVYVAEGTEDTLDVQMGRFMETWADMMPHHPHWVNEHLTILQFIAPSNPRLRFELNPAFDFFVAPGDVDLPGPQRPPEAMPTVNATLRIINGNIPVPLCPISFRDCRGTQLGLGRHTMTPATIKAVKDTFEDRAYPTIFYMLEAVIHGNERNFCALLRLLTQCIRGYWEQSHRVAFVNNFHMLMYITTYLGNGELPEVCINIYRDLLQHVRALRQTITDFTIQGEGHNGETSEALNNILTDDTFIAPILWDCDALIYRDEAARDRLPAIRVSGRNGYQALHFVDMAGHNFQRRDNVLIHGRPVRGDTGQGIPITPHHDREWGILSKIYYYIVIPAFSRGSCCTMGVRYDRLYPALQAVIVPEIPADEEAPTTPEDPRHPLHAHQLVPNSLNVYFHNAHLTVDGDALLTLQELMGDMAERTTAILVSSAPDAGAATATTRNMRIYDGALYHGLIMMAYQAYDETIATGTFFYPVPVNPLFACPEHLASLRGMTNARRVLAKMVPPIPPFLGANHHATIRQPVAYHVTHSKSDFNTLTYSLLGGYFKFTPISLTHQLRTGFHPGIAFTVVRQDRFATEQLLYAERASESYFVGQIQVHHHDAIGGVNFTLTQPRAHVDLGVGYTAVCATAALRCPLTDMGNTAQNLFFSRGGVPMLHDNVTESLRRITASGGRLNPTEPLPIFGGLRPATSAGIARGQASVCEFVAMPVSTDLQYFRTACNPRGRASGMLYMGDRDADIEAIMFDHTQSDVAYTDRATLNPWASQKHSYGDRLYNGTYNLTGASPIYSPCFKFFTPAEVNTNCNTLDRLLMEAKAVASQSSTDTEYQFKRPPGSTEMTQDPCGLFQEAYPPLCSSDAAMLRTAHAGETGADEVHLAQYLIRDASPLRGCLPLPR

As for “VZV capsid-associated tegument complex (CATC)”, the percent of pentons bound with CATCs in data set [1] is 50.5%.

B1: VZV small capsid protein (SCP) pORF23 (natural protein)
chain: MTQPASSRVVFDPSNPTTFSVEAIAAYTPVALIRLLNASGPLQPGHRVDIADARSIYTVGAAASAARARANHNANTIRRTAMFAETDPMTWLRPTVGLKRTFNPRIIRPQPPNPSMSLGISGPTILPQKTQSADQSALQQPAALAFSGSSPQHPPPQTTSASVGQQQHVVSGSSGQQPQQGAQSSTVQPTTGSPPAAQGVPQSTPPPTQNTPQGGKGQTLSHTGQSGNASRSRRV
As to B1, in data set [2], the “stoichiometry N” value was found to be 6.

A word on the stoichiometry N: it is the number of molecules, sites or subunits per partner or assembly.
